Reference: PMC11225796
Like-named read-outs stand apart in the source and are kept apart here.

Experiments:
Experiment in all cases: cross-linking
MBP-Z(6His) [1] = biological target: MBP-Z(6His)
MBP-Z(6Tyr) [2] = biological target: MBP-Z(6Tyr)
MBP-Z(6His) [3] = biological target: MBP-Z(6His); remark: listed apart in the source
MBP-Z(6Tyr) [4] = biological target: MBP-Z(6Tyr); remark: listed apart in the source
MBP-Z(6His) [5] = biological target: MBP-Z(6His); remark: listed apart in the source
MBP-Z(6Tyr) [6] = biological target: MBP-Z(6Tyr); remark: listed apart in the source
MBP-Z(6His) [7] = biological target: MBP-Z(6His); remark: listed apart in the source
MBP-Z(6Tyr) [8] = biological target: MBP-Z(6Tyr); remark: listed apart in the source
MBP-Z(6His) [9] = biological target: MBP-Z(6His); remark: listed apart in the source
MBP-Z(6Tyr) [10] = biological target: MBP-Z(6Tyr); remark: listed apart in the source

| Substance | cross-linking efficiency (MBP-Z(6His) [1]) [%] | cross-linking efficiency (1 mM Na2SiO3) (MBP-Z(6His) [1]) [%] | cross-linking efficiency (no Na2SiO3) (MBP-Z(6His) [1]) [%] | cross-linking efficiency (MBP-Z(6Tyr) [2]) [%] | cross-linking efficiency (1 mM Na2SiO3) (MBP-Z(6Tyr) [2]) [%] | cross-linking efficiency (no Na2SiO3) (MBP-Z(6Tyr) [2]) [%] | cross-linking efficiency (MBP-Z(6His) [3]) [%] | cross-linking efficiency (MBP-Z(6Tyr) [4]) [%] | cross-linking efficiency (MBP-Z(6His) [5]) [%] | cross-linking efficiency (MBP-Z(6Tyr) [6]) [%] | cross-linking efficiency (MBP-Z(6His) [7]) [%] | cross-linking efficiency (MBP-Z(6Tyr) [8]) [%] | cross-linking efficiency (MBP-Z(6His) [9]) [%] | cross-linking efficiency (MBP-Z(6Tyr) [10]) [%] | cross-linking efficiency (day 0) (MBP-Z(6His) [1]) [%] | cross-linking efficiency (day 1) (MBP-Z(6His) [1]) [%] | cross-linking efficiency (day 3) (MBP-Z(6His) [1]) [%] | cross-linking efficiency (day 5) (MBP-Z(6His) [1]) [%] |
| --- | --- | --- | --- | --- | --- | --- | --- | --- | --- | --- | --- | --- | --- | --- | --- | --- | --- | --- |
| Zspa affibody with PFY at site 36, Afb(36PFY) (designed binder) | 5 | 18.8 | 36.9 | 27.5 | 45.7 | 24.7 | 37.4 | 26.8 | 35.3 | 33.7 | 21.4 | 5.3 | 21.3 | 44.5 | – | – | – | – |
| Zspa affibody with FSY at site 36, Afb(36FSY) (designed binder) | – | – | – | – | – | – | – | – | – | – | – | – | – | – | 60.2 | 47.7 | 27.5 | 17.9 |
